The text below walks through data of patent EP0980526B1 (IMPERIAL CANCER RESEARCH TECHNOLOGY LIMITED, dated 1998).

This assay deals with T1, AAD-ER (acidic activation domain fused to the LBD of the wild-type ER) (human, UniProt P03372 282-595).
T1 construct: range 282-595; Yeast two-hybrid prey; tested with or without 10^-7 M 17-beta-estradiol (E2); also called LBD of the ER; ER LBD
T1 sequence (looked up): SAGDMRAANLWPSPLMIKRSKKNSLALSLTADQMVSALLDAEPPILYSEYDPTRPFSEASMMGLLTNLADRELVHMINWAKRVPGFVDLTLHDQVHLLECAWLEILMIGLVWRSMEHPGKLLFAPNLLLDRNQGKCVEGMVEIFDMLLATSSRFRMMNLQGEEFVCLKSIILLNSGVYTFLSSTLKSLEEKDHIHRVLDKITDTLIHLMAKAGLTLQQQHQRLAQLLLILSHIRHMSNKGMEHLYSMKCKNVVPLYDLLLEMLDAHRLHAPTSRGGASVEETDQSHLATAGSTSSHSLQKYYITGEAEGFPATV
Description: yeast two-hybrid.

B1: DBD alone (other, human, UniProt P03372 176-282, looked up)
chain: MESAKETRYCAVCNDYASGYHYGVWSCEGCKAFFKRSIQGHNDYMCPATNQCTIDKNRRKSCQACRLRKCYEVGMMKGGIRKDRRGGRMLKHKRQRDDGEGRGEVGS
notes: Two-hybrid bait control without a motif
On to B1, for which the binding result is reported as “no binding”.
